The values below come from patent US20220339183.

This data set deals with human non-mutant tau (transgene of Alz17 mice), P10636.
Sequence of human non-mutant tau (transgene of Alz17 mice), P10636 (P10636 whole entry, looked up, change not shown): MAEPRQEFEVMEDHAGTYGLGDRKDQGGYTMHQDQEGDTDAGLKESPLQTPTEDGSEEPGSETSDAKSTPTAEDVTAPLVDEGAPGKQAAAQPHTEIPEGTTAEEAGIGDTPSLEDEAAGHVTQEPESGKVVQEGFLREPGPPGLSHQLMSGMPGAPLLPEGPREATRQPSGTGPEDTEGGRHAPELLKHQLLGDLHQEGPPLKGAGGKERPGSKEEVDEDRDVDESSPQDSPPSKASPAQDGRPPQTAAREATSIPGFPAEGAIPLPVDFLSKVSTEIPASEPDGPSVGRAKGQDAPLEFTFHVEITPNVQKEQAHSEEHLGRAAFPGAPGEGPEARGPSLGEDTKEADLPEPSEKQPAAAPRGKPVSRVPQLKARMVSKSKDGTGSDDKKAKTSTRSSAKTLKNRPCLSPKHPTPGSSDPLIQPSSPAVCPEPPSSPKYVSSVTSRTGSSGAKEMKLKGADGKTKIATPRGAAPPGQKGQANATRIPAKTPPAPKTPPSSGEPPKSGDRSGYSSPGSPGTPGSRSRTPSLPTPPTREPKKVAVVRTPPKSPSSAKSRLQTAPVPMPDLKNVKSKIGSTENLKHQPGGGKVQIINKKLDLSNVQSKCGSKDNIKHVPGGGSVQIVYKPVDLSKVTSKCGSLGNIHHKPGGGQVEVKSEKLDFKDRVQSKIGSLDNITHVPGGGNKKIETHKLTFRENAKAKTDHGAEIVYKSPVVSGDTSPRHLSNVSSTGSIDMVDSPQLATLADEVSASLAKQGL

B1: constitutively active p38γ (p38γ^CA; p38γ Asp179Ala), HA-tagged (protein)
chain: MSSPPPARSGFYRQEVTKTAWEVRAVYRDLQPVGSGAYGAVCSAVDGRTGAKVAIKKLYRPFQSELFAKRAYRELRLLKHMRHENVIGLLDVFTPDETLDDFMDFYLVMPFMGTDLGKLMKHEKLGEDRIQFLVYQMLKGLRDLKPGNLAVNEDCELKILDFGLARQAASEMTGYVVTRWYRAPEVILNWMRYTQTVDIWSVGCIMAEMITGKTLFKGSDHLDQLKEIMKVTGTPPAEFVQRLQSDEAKNYMKGLPELEKKDFASILTNASPLAVNLLEKMLVLDAEQRVTAGEALAHPYFESLHDTEDEPQVQKYDDSFDDVDRTLDEWKRVTYKEVLSFKPPRQLGARVSKETPL
In the case of B1, the “Immunofluorescence staining of brains with antibodies to tau and tau phosphorylated at T205” value was “increased T205 tau phosphorylation in Alz17.p38γ^CA mice compared with Alz17 mice”; the “Western blotting of synaptosome preparations from mouse brains for pT205 tau” value was “increased phosphorylation of tau at T205 in the post-synapse of Alz17.p38γ^CA mice as compared with Alz17.p38γ^+/+ controls”.

B2: endogenous mouse p38γ (protein)
chain: MSSPPPARKGFYRQEVTKTAWEVRAVYQDLQPVGSGAYGAVCSAVDSRTGNKVAIKKLYRPFQSELFAKRAYRELRLLKHMRHENVIGLLDVFTPDESLDDFTDFYLVMPFMGTDLGKLMKHETLSEDRIQFLVYQMLKGLKYIHAAGVIHRDLKPGNLAVNEDCELKILDFGLARQADSEMTGYVVTRWYRAPEVILNWMRYTQTVDIWSVGCIMAEMITGKILFKGNDHLDQLKEIMKITGTPPPEFVQKLQSAEAKNYMEGLPELEKKDFASVLTNASPQAVNLLERMLVLDAEQRVTAAEALTHPYFESLRDTEDEPKAQKYDDSFDDVDRTLEEWKRVTYKEVLSFKPPRQLGARVPKETAL
On to B2, for which the “Western blotting of synaptosome preparations from mouse brains for pT205 tau” value is “phosphorylation of tau at T205 was no longer detectable in Alz17.p38γ^-/- mice that also lacked p38γ in their post-synapses”.
